From the DeepSol protein solubility set come the findings set out here.

The nature of the series: soluble on expression in E. coli; label from the status in PepcDB or PDB records.
As for “MFTTKGIDISGELTMMGIPEQNSKTVTPGLHYAADGFRLSGGNANFIARNMASVTGNIYADDAATITLGQPETETPTISSAYQAWAETLLYGFDTAYRGAITAPKATVSMNNAIWHLNSQSSINRLETKDSMVRFTGDNGKFTTLTVDNLTIDDSAFVLRANLAQADQ”, the “soluble on expression in E. coli” value is “not soluble”.
With “MGPDTTSERVSEDLMQAVTCLKRVMVGMKSNGTDYVQEQTPSNSTTVICTLVKITGALERCIESNKAMNDVLNGKMKCTTCGATSVGLLSDCHDSATSTTTTVSHRSSEEPPRRKPSAAGGDHDDEELECSSIESRSIRSVSSSVHTSAEDDETNQTMMVPTDVADVINAIVAGTNGSSNSNTTSSSKSPQEEEEEHDLVMKSILSTTTSTSNTKLELSEKLENPLQDTALLDQFLQASLLGQTPTVTPASEENEEDKEQNAVLTSFLQILFANQQAGNAILDAGSSENDGSTSSSQPSPPADPTASLDSLAMFESLLAESMNGNVLDANTSSADQKAAARKRKSTPMKVPKSENGAGYICPMDGCNKVFKEKGSVHRHFVTHIGMRFNCDKCKASYTQKHALMLHQKIHANPDAYQCRGCGTNYTTQNGLRLHRQRNPACMEVSNALEFNTSLNTSISEALSGPLSKNSSPTKQMVSAP”, the “soluble on expression in E. coli” value is on record as “not soluble”.
The same measure for “HSHDWLTYPAGIHAKTVTGKPLVVHVHATDFDRSRGNVNPQVFAIEKDGMNHADHIITVSNLTRRTVIEKYGQHPDKVTTVHNAVEPLPASILALPDKRGVKDKVITFLGRITMQKGPEYFVEAAAKVLERTSDVRFVMAGNGDMMDAMIRLAARHKIADRFHFTGFMKGEQVYEVFKASDVYVMPSVSEPFGISPLEAMQCGVPSIISKQSGCAEILDYAIKVDYWDIDAMADAMHALIAYPELHTFLRDEGLREVNNIKWETAGQKVRDIYNKVTGR”: “not soluble”.
“MTAQKMSAQEIIAFIGNAEKKTNVKVTFEGELATAVPSSVTKLGNVLFGDWKDIEPLLANLTENKDYVVEQDGRNSAVPLLDK”: the “soluble on expression in E. coli” value was “not soluble”.
For “MSELPPLNTDTIWGILNDQIDDATVMQLVWYYLGYRYDATTEKWDNNAVPSEWRDEYPEPPNFLESRPATMKLTRSIPKQYKQITKEKLGFKGYKIGTFTPRETRRATSANWLLSYLQQQIDQGK”, the “soluble on expression in E. coli” value is given as “soluble”.
The result for “ANLYWFRADWFDDADTKAAFKEKYGYDLGVPLNWSAYEDIAEFFTGRDMSALGGPKSAYGSMDYGKKDPSLGWRYTDAWMSMAGMGDKGDPNGLPVDEWGIRVDENSRPVGSCVARGGATNDAAAVYAITKSIEWLQKYAPPQAAGMTFSESGPVPAQGEVAQQIFWYTAFTADMVKEGLPVMNEDGTPKWRMAPSPHGAYWSEGTKVGYQDVGSWTLLKSTPDERAKAAWLYAQFVSSKTVDVKKSHVGLTFVRESTIQHQ” reads “not soluble”; that for “MALLEICCYSMECALTAQRNGADRIELCAAPKEGGLTPSFGVLRSVREHITIPVHPIIRPRGGDFYYTDGEFAAMLEDIRLVRELGFPGLVTGVLTVDGDVDMSRMEKIMAAAGPLAVTFHRAFDMCANPFNALKNLADAGVARVLTSGQKADAAQGLSIIMELIAQGDAPTIMAGAGVRANNLQNFLDAGVREVHSSAGVLLPSPMRYRNQGLSMSADIQADEYSRYRVEGAAVAEMKGIIVRHQAKLEHHHHHH”, “soluble”.
The same measure for “MGSDKIHHHHHHMSSTPSNQNIIPIIKKESIVSLFEKGIRQDGRKLTDYRPLSITLDYAKKADGSALVKLGTTMVLAGTKLEIDKPYEDTPNQGNLIVNVELLPLAYETFEPGPPDENAIELARVVDRSLRDSKALDLTKLVIEPGKSVWTVWLDVYVLDYGGNVLDACTLASVAALYNTKVYKVEQHSNGISVNKNEVVGKLPLNYPVVTISVAKVDKYLVVDPDLDEESIMDAKISFSYTPDLKIVGIQKSGKGSMSLQDIDQAENTARSTAVKLLEELKKHLGI”: “not soluble”; for “MGSDKIHHHHHHMTKQLLVLQSDFGISDGAVSAMYGVINSVSKDLQIYDLTHQIPQFNIWEASYRLLQTVTYWPEDTIFVSIVDPGVGSKRRSVVVLTEDGHYIITPDNGTLTHIAHYGTIKEVRLIDEEKNRLPKSGASHTFHGRDIFAYTAARLAAGVINFEDIGPSATPDSIVSLSLSDSYLEGEQAFGTIDIIDRPFGNLWTNIRRTDFLQLGANYGDSIEVLIKHHDRVVYKNFVTYSRSFADLRIGEALIYVNSLDNLGLGINQGSFVDAYSVGTGTSWKVTLKKV”: “not soluble”; for “MSLYLFGESDHYLWLPRGLLYPLQDKFKQVSVEDRRKVQRSISVEFKGELTFEQELALSDMTSKENGLLHAETGFGKTVLGAALISERKTKTIILVHNKQLLDQWLDRLNCFLTFEEEEAIRYTASGREKVIGYVGQYGGTKKWLSKLVDVVMIQSLFKLENSQSLLDEYEMMIVDECHHVSALMFEKVVAQFRGKYLYGLTATPERKNGHEPIVFQRIGEILHTADKREGHHHHHH”: “not soluble”.
The same measure for “NGEVEVPKTELEEIQQQCNQVTDDSLESTRRMLNMCEESKEAGIRTLVMLDEQGEQLDRIEEGLDQINQDMKDAEKNLEGMEK”: “soluble”; for “MYGEGDFYTIKSKRDYEFYLEADRLALGKNCKKPRLIGDDIWKFQRLLRQAEYYSNCQNSLLHKLYLKYILFRFHRMSIRLGFSIPINVFGPGLCIAHRGTIVVNKGARVGENCRIHACTNIGSGRDNIFLAPKIGNGVYIGPGAKIFGSVEIADNIAIGANSVVNRSFYERGISIAGVPAKKISNKGSDGMVIAATKTVSVPVSQETILEHHHHHH”: “soluble”; for “INPAAHGAMDELLGELRLHTVCREARCPNITECFRERQATFLILGAECTRLCSFCNVTKGEPLPPDPDEPARVAQAVVRLSLAHVVITSPTRDDLPDGGAGHYVATVATIGRVAPATVVELLIPDFLGSRAALADVVAAAPRIIGHNVETVPRLYAIRAGADYGRSLAVLRTLRELAPGCATKSGLMLGLGETEEEVLAVMADLRRVDCTYLSLGQYLAPSRFHHPVREFVLPETFDRLKELAEKMGFRHVESGPY”: “not soluble”.
As to “MSLSLQQIDQIISILNKQSKPYDWVMQEFAKVEELKNFDLDLETFELLGLGLTLNKDNIFTLKTRTTKIKDEIFCIVDIESTGGVSKGEILEIGAVKIQNSKEIGRFQSFVKVKEIPKNITELTGITYEMVENASSLAKVLSDFRLFLKDSIFVAHNVRFDYSFISKALNECGFGILLNRRICTIEFAQCCIESPKYKLEVLKEFLGVENMHHRALDDALAAAEIFKYCLGKLPYHIKTTEELINFTKTARIKEGHHHHHH”, the “soluble on expression in E. coli” value was “soluble”.
As to “MQILKVIGLLMEYPDELLWECKEDALALIRRDAPMLTDFTHNLLNAPLLDKQAEWCEVFDRGRTTSLLLFEHVHAESRDRGQAMVDLLAEYEKVGLQLDCRELPDYLPLYLEYLSVLPDDQAKEGLLNVAPILALLGGRLKQREAPWYALFDALLQLAGSSLSSDSVTKQVNSEERDDTRQALDAVWEEEQVKFIEDNATACDSSPLNQYQRRFSQDVAPQYVDISAGGGK”, the “soluble on expression in E. coli” value was “not soluble”.
The same measure for “WGYECIGMFRSYQEINEYFDKYSITKYLGNTKENVHPGMLIYKDVRGQYDESTGTFGPADGIVDEQDYIKISHRASNPYGGTLNFGFSYKDFSISAQFGASWGAYSLVPTTMRKESYSEYSNVSAMWKDMFVYEDIYDANNIVTVAQNRNAKYPNIRYSSVNGAPSTFWKVSAATVQLRNMTVAYALPKEWLKIIGISSCRFNLTCQNVFNFLNPYPEGAWASWAGSYGYYPNLRKFTLGVNVSF”: “not soluble”.
On to “MAVKHASAPKAYINITGLGFAKLTKEGAELKYSDITKTRGLQKIGVETGGELKTAYADGGPIESGNTDGEGKISLQMHAFPKEIRKIVFNEDYDEDGVYEEKQGKQNNYVAVWFRQERRDGTFRTVLLPKVMFTNPKIDGETAEKDWDFSSEEVEGEALFPLVDNKKSVRKYIFDSANMTNHGGDGEKGEEAFLKKILGEEYTGNVTEDNEETLLEHHHHHH”, for which the “soluble on expression in E. coli” value was “soluble”.
The same measure for “MGSDKIHHHHHHMNRIGIIGAMQIEIDLLLEKLAIQEKQTIAGMPFYVGEFMGMEVIVTRCGVGKVNAAACTQTLIHKFDVDAIINTGVAGGLHPDVKVGDVVISTNVTHHDVSKTQMKNLFPFQEEFHASKKLMELARTACNSSSLHIGVHEGRIVSGECFVEDSKLKAKLIDEYAAHCTEMEGAAIGHVAYINEVPFLVIRCISDSADDEAQISYDDFAKTAANYCSEIIVEMLKNISSKTYSSKGGNEMLQAFIFDMDGTLFQTDKILELSLDDTFDHLRSLQLWDTVTPIEKYREIMGVPLPKVWETLLPNHSIEVREQTDAYFLERLIENIKSGKGALYPNVKEIFTYIKENNCSIYIASNGLTEYLRAIVSYYALDQWVTETFSIEQINSLNKSDLVKSILNKYDIKEAAIVGDRLSDINAAKDNGLFAIGCNFDFAQEDELVQADIVIDDLMELKGILPAVQR”: “not soluble”.
With “MAHHHHHHMRQTGSFQPFFLRGKVVHGKGRGGSQLGFPTANIGLDKDVMECLQPYKNLVVYGWGTVSQVPGKERESFGPYPFAASIGFNMQFDEKTLTVEPYFLHEFGWDFYGAVVKIIVLGEIRSMGSFHSLQALVDTIKSDVQFTRDMLQKPQLQEFSRHSLFESPSSTIPYFEDLPDE”, the “soluble on expression in E. coli” value was “soluble”.
Consider “MGSDKIHHHHHHMKIKAIITGATGMVGEGVMHECLLNPDVEEVLIINRKPSGFTHAKLKEIIHTDFFNLAPVEQQLAGYNACYFCLGVSSIGMNEADYTKMTYTLTMHVAETLSRLNKDMTFCYVSGASTDSTEKGKSMWARVKGKTENDLTRLPFKDVYNFRPGYMQPTPGLKNTQKYYTYMSWMYPFLKLVFKNYVSTLKDVGLAMIRVTLFGHNKQVLEVPDIKALAKKTQFV”, for which the “soluble on expression in E. coli” value is given as “not soluble”.
In the case of “MVTTLTPVICESAPAAAASYSHAMKVNNLIFLSGQIPVTPDNKLVEGSIADKAEQVIQNIKNVLEASNSSLDRVVKVNIFLADINHFAEFNSVYAKYFNTHKPARSCVAVAALPLGVDMEMEAIAAERD”, the “soluble on expression in E. coli” value is given as “soluble”.
The result for “MKIRYKFGVWMLCLMFPALVWAENAKSICTSFTQQGRQVTFHLADSAALQLQLCSPSVVRIWFSPDGKLQRRNASFAVINEELEDVGTVHVDEQAACYEIFTSKLRIRVNKSPMSIQIFDKYQKLLFSDYADKGHVSEGTKKVEYKTLRRDEHFFGLGEKTGKMDRRGESYKMWNSDKPCYSVVEDPLYKSIPFFMSSYRYGIFLDNTYKTEFKFGTESRDYYSFEAPDGEMIYYFIFGKDYKEILSQYVGLTGKPIMPPKWALGFAQCRGLLTSEKLSREIAEGYRTRGIPCDIIYQDIGWTEHLQDFEWRKGNYGHPKKMLADLKEMGFKVVVSQDPVISQANKKQWEEADRLGYFVKDSTNGKSYDMPWPWGGNCGVVDFTLPAVADWWGTYQQKPIDDGISGFWTDMGEPAWSNEEQTERLVMKHHLGMHDEIHNVYGLTWDKVVKEQFEKRNPNRRVFQMTRAAYAGLQRYTFGWTGDCGNGDDVLQGWGQLANQIPVILSAGLGVIPFTTCDITGYCGDIEDYHPFAELYTRWIQFGAFNPLSRIHHEGDNPVEPWLFGPEAEKNAKEAIELKYRLLPYIYTYAREAHDTGLPIMRPLFLEYPADMETFSTDGQFLFGQELLVAPVVKKGARTKNVYLPEGTWIDYNNKQTVYTGEQWTTVEAPLSCIPMFVKQGSIIPTMPVMNYTHEKPVYPLIFEVFPAPKGEEASFTLYEDEGEDLGYQRDEFAKTPVRFRTEEGGYLLSVGAREGKGYAVPAPRNFIFRMYLKTAPKGVTVQGKKVKKVKPERLEENPDDDTESMVWSWDKATGICSLRMPDRGEESRISLRL” reads “not soluble”.
